Experimental data taken from patent publication US6969760.

Biological target: T1, wild type EPO receptor (EPOR) expressed in DA3(EPOR) cells or 3T3 fibroblasts, P14753
T1 chain: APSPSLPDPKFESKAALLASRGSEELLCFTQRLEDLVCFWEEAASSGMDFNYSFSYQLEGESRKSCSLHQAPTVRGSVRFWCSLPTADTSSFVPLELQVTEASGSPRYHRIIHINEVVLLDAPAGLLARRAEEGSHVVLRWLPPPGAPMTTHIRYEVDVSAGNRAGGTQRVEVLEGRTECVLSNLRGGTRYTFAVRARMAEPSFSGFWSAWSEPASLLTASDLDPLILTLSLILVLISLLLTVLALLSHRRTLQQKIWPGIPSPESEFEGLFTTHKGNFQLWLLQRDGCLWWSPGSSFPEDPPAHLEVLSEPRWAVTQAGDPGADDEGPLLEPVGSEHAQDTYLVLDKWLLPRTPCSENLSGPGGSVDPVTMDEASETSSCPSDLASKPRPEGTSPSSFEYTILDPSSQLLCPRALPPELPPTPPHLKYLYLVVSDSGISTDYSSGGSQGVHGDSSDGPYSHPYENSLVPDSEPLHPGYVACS

B1: murine Jak2 protein tyrosine kinase (protein)
chain: MGMACLTMTEMEATSTSPVHQNGDIPGSANSVKQIEPVLQVYLYHSLGQAEGEYLKFPSGEYVAEEICVAASKACGITPVYHNMFALMSETERIWYPPNHVFHIDESTRHDILYRIRFYFPHWYCSGSSRTYRYGVSRGAEAPLLDDFVMSYLFAQWRHDFVHGWIKVPVTHETQEECLGMAVLDMMRIAKEKDQTPLAVYNSVSYKTFLPKCVRAKIQDYHILTRKRIRYRFRRFIQQFSQCKATARNLKLKYLINLETLQSAFYTEQFEVKESARGPSGEEIFATIIITGNGGIQWSRGKHKESETLTEQDVQLYCDFPDIIDVSIKQANQECSNESRIVTVHKQDGKVLEIELSSLKEALSFVSLIDGYYRLTADAHHYLCKEVAPPAVLENIHSNCHGPISMDFAISKLKKAGNQTGLYVLRCSPKDFNKYFLTFAVERENVIEYKHCLITKNENGEYNLSGTKRNFSNLKDLLNCYQMETVRSDSIIFQFTKCCPPKPKDKSNLLVFRTNGISDVQISPTLQRHNNVNQMVFHKIRNEDLIFNESLGQGTFTKIFKGVRREVGDYGQLHKTEVLLKVLDKAHRNYSESFFEAASMMSQLSHKHLVLNYGVCVCGEENILVQEFVKFGSLDTYLKKNKNSINILWKLGVAKQLAWAMHFLEEKSLIHGNVCAKNILLIREEDRRTGNPPFIKLSDPGISITVLPKDILQERIPWVPPECIENPKNLNLATDKWSFGTTLWEICSGGDKPLSALDSQRKLQFYEDKHQLPAPKWTELANLINNCMDYEPDFRPAFRAVIRDLNSLFTPDYELLTENDMLPNMRIGALGFSGAFEDRDPTQFEERHLKFLQQLGKGNFGSVEMCRYDPLQDNTGEVVAVKKLQHSTEEHLRDFEREIEILKSLQHDNIVKYKGVCYSAGRRNLRLIMEYLPYGSLRDYLQKHKERIDHKKLLQYTSQICKGMEYLGTKRYIHRDLATRNILVENENRVKIGDFGLTKVLPQDKEYYKVKEPGESPIFWYAPESLTESKFSVASDVWSFGVVLYELFTYIEKSKSPPVEFMRMIGNDKQGQMIVFHLIELLKSNGRLPRPEGCPDEIYVIMTECWNNNVSQRPSFRDLSFGWIKSGTV
EPO-induced tyrosine phosphorylation of Jak2 in 3T3 fibroblasts expressing EPOR (Jak2 immunoprecipitation, 4G10 blot): Following stimulation of the cells with EPO, a 130 kDa band, co-migrating with Jak2, was readily detected by a monoclonal antibody against phosphotyrosine (4G10)
